Measurements: publication PMC11191652 (Biomaterials science, 2024)

Target: p300 (UniProt Q09472 1-2414)
Experiment: ELISA

Sequence of p300 (Q09472 whole entry): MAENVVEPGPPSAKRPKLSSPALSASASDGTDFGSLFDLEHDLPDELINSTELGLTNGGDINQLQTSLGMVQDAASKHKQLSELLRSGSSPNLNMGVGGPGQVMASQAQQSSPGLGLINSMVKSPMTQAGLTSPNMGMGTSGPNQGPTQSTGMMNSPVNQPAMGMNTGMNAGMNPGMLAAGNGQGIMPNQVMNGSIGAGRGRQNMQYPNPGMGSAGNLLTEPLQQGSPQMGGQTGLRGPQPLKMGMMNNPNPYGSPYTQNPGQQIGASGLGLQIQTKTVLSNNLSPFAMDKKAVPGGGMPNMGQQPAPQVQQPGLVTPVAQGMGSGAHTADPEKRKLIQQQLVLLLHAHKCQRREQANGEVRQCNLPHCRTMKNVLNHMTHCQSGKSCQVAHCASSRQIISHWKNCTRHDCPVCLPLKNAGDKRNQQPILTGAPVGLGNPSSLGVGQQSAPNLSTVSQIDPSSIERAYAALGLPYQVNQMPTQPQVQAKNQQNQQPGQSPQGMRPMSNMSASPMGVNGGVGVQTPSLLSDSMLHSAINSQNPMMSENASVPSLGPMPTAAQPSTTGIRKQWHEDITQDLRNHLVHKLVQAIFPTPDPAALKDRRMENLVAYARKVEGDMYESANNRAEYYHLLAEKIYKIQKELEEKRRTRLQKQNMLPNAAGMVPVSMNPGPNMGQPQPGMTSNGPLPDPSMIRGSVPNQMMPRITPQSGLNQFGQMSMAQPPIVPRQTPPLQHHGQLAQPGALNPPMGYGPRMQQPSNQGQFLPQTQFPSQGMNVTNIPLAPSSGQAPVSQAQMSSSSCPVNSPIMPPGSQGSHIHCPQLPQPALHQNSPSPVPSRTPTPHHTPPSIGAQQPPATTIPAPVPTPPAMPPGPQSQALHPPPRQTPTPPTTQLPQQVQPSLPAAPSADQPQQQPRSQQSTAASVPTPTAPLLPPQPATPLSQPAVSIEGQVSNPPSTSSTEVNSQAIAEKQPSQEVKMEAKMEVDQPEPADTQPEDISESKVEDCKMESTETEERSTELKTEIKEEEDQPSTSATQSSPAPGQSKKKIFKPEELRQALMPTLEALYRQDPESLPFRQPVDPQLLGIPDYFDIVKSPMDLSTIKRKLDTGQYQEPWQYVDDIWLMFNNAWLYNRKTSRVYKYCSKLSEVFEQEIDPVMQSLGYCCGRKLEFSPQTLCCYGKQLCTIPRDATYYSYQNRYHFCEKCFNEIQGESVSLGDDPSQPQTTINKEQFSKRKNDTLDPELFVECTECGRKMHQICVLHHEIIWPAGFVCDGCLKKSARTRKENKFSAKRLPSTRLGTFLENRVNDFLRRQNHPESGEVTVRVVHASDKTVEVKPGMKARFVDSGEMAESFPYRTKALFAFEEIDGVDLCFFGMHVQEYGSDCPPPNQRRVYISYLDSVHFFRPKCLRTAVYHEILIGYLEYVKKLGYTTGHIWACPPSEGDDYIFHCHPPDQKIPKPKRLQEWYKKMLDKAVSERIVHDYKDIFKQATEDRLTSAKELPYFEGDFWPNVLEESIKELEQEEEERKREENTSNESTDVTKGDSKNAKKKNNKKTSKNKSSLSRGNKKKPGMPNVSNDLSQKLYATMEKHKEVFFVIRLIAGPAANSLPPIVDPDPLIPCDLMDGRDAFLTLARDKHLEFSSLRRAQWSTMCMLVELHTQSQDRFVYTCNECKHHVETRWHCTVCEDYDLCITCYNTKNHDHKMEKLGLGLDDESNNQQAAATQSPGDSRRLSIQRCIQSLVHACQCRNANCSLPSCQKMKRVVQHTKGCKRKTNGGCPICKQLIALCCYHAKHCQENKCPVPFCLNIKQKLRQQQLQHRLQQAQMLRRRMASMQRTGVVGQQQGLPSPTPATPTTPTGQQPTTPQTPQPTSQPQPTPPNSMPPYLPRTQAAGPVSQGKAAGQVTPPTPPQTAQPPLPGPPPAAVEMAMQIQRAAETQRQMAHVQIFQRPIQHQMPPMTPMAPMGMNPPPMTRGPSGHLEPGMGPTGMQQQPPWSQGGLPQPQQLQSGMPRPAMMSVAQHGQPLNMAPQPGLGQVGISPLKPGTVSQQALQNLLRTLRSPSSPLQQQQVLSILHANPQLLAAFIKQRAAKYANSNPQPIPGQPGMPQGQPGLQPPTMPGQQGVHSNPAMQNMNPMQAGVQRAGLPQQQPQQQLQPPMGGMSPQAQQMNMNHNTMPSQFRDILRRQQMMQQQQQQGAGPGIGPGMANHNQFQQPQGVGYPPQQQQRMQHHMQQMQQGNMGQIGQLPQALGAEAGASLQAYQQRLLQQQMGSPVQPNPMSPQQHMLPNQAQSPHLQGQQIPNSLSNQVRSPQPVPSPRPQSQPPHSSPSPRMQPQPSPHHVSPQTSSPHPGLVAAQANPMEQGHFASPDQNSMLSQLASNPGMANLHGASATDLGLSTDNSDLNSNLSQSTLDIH

Kd: 0.0145 µM
Binder: SMDESGLPQLTSYDCEVNAPIQGSRNLLQGEELLRALDQVN (domain or fragment, UniProt Q16665 786-826, looked up) [HIF1α C-terminal transactivation domain, HIF1α_(786–826)]
